Measurements: patent publication US20100279930A1 (published 2010)
Residue numbers refer to the chain shown, from its start. Like-named read-outs stand apart in the source and are kept apart here. Each block holds one binder with its values, some of them ahead of it.

Legend:
human Y4 receptor [1] = molecular target: T1, human Y4 receptor (human, UniProt P50391 1-375); assay: 125I-PP displacement
human Y4 receptor [2] = molecular target: T1, human Y4 receptor; assay: 125I-PP displacement; remark: listed apart in the source

T1 sequence (P50391 whole entry): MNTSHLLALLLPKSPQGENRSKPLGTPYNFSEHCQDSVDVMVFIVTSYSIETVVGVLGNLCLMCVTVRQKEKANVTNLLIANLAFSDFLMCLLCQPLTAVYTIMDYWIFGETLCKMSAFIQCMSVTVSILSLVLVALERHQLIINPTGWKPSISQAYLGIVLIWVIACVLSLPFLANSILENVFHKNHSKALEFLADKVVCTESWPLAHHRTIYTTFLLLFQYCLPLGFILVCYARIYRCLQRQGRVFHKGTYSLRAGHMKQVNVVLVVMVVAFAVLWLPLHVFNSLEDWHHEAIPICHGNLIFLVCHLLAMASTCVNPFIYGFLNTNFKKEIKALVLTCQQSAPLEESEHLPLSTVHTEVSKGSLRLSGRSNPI

- IC50 (human Y4 receptor [1]): 0.153 nM
B1: 4060899 (peptide)
chain: PLEPVYPGDNATPEQLAKYAAELRRYIDKLTRPRY

- IC50 (human Y4 receptor [1]): 0.091 nM
B2: 4060356 (peptide)
chain: GAPLEPEYPGDNATPEQLARYAAALRRYINKLTRPRY

- IC50 (human Y4 receptor [1]): 0.114 nM
B3: 4060896 (peptide)
chain: B2 chain with L18M, R20K, N30D

- IC50 (human Y4 receptor [1]): 0.046 nM
B4: 4060309 (peptide)
chain: B2 chain with L18K

- IC50 (human Y4 receptor [1]): 0.091 nM
B5: 4060695 (peptide)
chain: B2 chain with G1A, E7T, L18M, N30D

- IC50 (human Y4 receptor [1]): 0.036 nM
B6: 4060301 (peptide)
chain: B2 chain with L18K, R20K, K31R

- IC50 (human Y4 receptor [1]): 0.079 nM
B7: 4060694 (peptide)
chain: B2 chain with G1A, E7T, Y8A, L18M

- IC50 (human Y4 receptor [1]): 0.101 nM
B8: 4060312 (peptide)
chain: B2 chain with N12D, L18K, K31H

- IC50 (human Y4 receptor [1]): 0.099 nM
B9: 4060311 (peptide)
chain: B2 chain with N12D, L18K

- IC50 (human Y4 receptor [1]): 0.099 nM
B10: 4060359 (peptide)
chain: B2 chain with Q17E, L18M

- IC50 (human Y4 receptor [1]): 0.088 nM
B11: 4060601 (peptide)
chain: B2 chain with L18K, R20K, N30D

- IC50 (human Y4 receptor [1]): 0.08 nM
B12: 4060358 (peptide)
chain: B2 chain with L18M, K31H

- IC50 (human Y4 receptor [1]): 0.171 nM
B13: 4060687 (peptide)
chain: PAPLEPHYPGDNATPEEMAKYAAELRRYIDKLTRPRY

- IC50 (human Y4 receptor [2]): 0.083 nM
B14: 4057144 (peptide)
chain: PAPLEPVYPGDNATPEQIAKYAADLRRYINKLTRPRY

- IC50 (human Y4 receptor [1]): 0.137 nM
B15: 4060897 (peptide)
chain: B2 chain with E7V, R20K, A24E, N30D

- IC50 (human Y4 receptor [1]): 0.106 nM
B16: 4060275 (peptide)
chain: B2 chain with G1P, L18K, R20K, K31H

- IC50 (human Y4 receptor [2]): 0.049 nM
B17: 4057231 (peptide)
chain: B14 chain with V7H, I18M

- IC50 (human Y4 receptor [1]): 0.174 nM
B18: 4061084 (peptide)
chain: B13 chain with P1G, H7V, E17Q, M18K

- IC50 (human Y4 receptor [1]): 0.21 nM
B19: 4061081 (peptide)
chain: B13 chain with H7T, E17Q, M18K

- IC50 (human Y4 receptor [1]): 0.159 nM
B20: 4061085 (peptide)
chain: B13 chain with H7V, E17Q, M18K

- IC50 (human Y4 receptor [1]): 0.062 nM
B21: 4060278 (peptide)
chain: B2 chain with G1P, L18K, R20K, K31R

- IC50 (human Y4 receptor [1]): 0.107 nM
B22: 4061091 (peptide)
chain: B13 chain with H7V, E17Q, M18K, K31R

- IC50 (human Y4 receptor [1]): 0.11 nM
B23: 4060893 (peptide)
chain: B13 chain with H7K, E17Q, M18L

- IC50 (human Y4 receptor [1]): 0.218 nM
B24: 4061087 (peptide)
chain: B13 chain with H7V, E17Q, M18K, K31H

- IC50 (human Y4 receptor [1]): 0.213 nM
B25: 4061086 (peptide)
chain: GAPLEPVYPGDNATPEQKAKYAAELRRYIDHLTRPRY

- IC50 (human Y4 receptor [1]): 0.1 nM
B26: 4061090 (peptide)
chain: B25 chain with H31R

- IC50 (human Y4 receptor [1]): 0.117 nM
B27: 4060308 (peptide)
chain: B25 chain with V7T, N12D, K18L, D30N

- IC50 (human Y4 receptor [1]): 0.151 nM
B28: 4060696 (peptide)
chain: B25 chain with G1A, V7K, K18L, H31K

- IC50 (human Y4 receptor [2]): 0.114 nM
B29: 4057141 (peptide)
chain: AAPLEPEYPGDDATPQQMAHYAAELRRYINKLTRPRY

- IC50 (human Y4 receptor [1]): 0.136 nM
B30: 4060681 (peptide)
chain: B29 chain with A1Y, Y8A, M18K, H20R

- IC50 (human Y4 receptor [1]): 0.076 nM
B31: 4060684 (peptide)
chain: B29 chain with A1G, M18K, H20R

- IC50 (human Y4 receptor [1]): 0.055 nM
B32: 4060686 (peptide)
chain: B29 chain with M18K, H20R

- IC50 (human Y4 receptor [2]): 0.092 nM
B33: 4057137 (peptide)
chain: B29 chain with A1H, H20R

- IC50 (human Y4 receptor [1]): 0.131 nM
B34: 4060682 (peptide)
chain: B29 chain with A1Y, M18K, H20R, N30D

- IC50 (human Y4 receptor [1]): 0.065 nM
B35: 4060685 (peptide)
chain: B29 chain with A1P, M18K, H20R

- IC50 (human Y4 receptor [1]): 0.064 nM
B36: 4060280 (peptide)
chain: PAPLEPTYPGDNATPEQKAKYYSELRRYINKLTRPRY

- IC50 (human Y4 receptor [1]): 0.073 nM
B37: 4060276 (peptide)
chain: B36 chain with P1G, K18L, K31R

- IC50 (human Y4 receptor [1]): 0.126 nM
B38: 4060894 (peptide)
chain: B13 chain with H7K, A22Y, A23S

- IC50 (human Y4 receptor [1]): 0.098 nM
B39: 4060306 (peptide)
chain: B36 chain with P1G, N12D, K18L, K31H

- IC50 (human Y4 receptor [1]): 0.109 nM
B40: 4060680 (peptide)
chain: B36 chain with T7K, Y8A, K18M, N30D

- IC50 (human Y4 receptor [1]): 0.105 nM
B41: 4061080 (peptide)
chain: B25 chain with V7T, H31K

- IC50 (human Y4 receptor [1]): 0.131 nM
B42: 4060606 (peptide)
chain: B36 chain with P1G, K18L, N30D

- IC50 (human Y4 receptor [1]): 0.097 nM
B43: 4060315 (peptide)
chain: B36 chain with P1G, Q17E, K18L

- IC50 (human Y4 receptor [1]): 0.073 nM
B44: 4060283 (peptide)
chain: B36 chain with P1G, K18L, Y37F

- IC50 (human Y4 receptor [1]): 0.067 nM
B45: 4060279 (peptide)
chain: B36 chain with P1G

- IC50 (human Y4 receptor [1]): 0.097 nM
B46: 4060313 (peptide)
chain: B36 chain with P1G, N12D, K18L

- IC50 (human Y4 receptor [1]): 0.124 nM
B47: 4061083 (peptide)
chain: B25 chain with G1Y, V7T, H31K

- IC50 (human Y4 receptor [1]): 0.084 nM
B48: 4060314 (peptide)
chain: B36 chain with N12D, K18L

- IC50 (human Y4 receptor [1]): 0.102 nM
B49: 4060603 (peptide)
chain: B36 chain with T7K, K18M, N30D, K31R

- IC50 (human Y4 receptor [1]): 0.055 nM
B50: 4060284 (peptide)
chain: B36 chain with K18L, Y37F

- IC50 (human Y4 receptor [1]): 0.101 nM
B51: 4060316 (peptide)
chain: B36 chain with Q17E, K18L

- IC50 (human Y4 receptor [1]): 0.121 nM
B52: 4060895 (peptide)
chain: B13 chain with A22Y, A23S

- IC50 (human Y4 receptor [1]): 0.158 nM
B53: 4061082 (peptide)
chain: B25 chain with G1A, V7T, H31K

- IC50 (human Y4 receptor [1]): 0.14 nM
B54: 4060605 (peptide)
chain: B36 chain with T7K, K18L, N30D

- IC50 (human Y4 receptor [1]): 0.173 nM
B55: 4060602 (peptide)
chain: B36 chain with T7K, K18M, N30D, K31H

- IC50 (human Y4 receptor [1]): 0.153 nM
B56: 4060691 (peptide)
chain: B36 chain with P1G, T7E, Y8A, K18M

- IC50 (human Y4 receptor [1]): 0.076 nM
B57: 4060277 (peptide)
chain: B36 chain with K18L, K31R

- IC50 (human Y4 receptor [1]): 0.172 nM
B58: 4060693 (peptide)
chain: GAPLEPEAPGDNATPEQMAKYYSELRRYIDKLTRPRY

- IC50 (human Y4 receptor [1]): 0.121 nM
B59: 4060604 (peptide)
chain: B58 chain with E7V, A8Y, K20R

- IC50 (human Y4 receptor [1]): 0.171 nM
B60: 4060690 (peptide)
chain: B58 chain with E7V, K20R
